Source: US20200216534A1
Like-named read-outs stand apart in the source and are kept apart here. One block for each molecule: values may come before it.

Assays:
Test in all cases: cell-based or functional assay
[1] = target: m19-humBBz CAR (mouse; human) (UniProt P01731)
[2] = target: h19BBz CAR (human) (UniProt P01732)
[3] = target: m19-humBBz CAR (mouse; human) (UniProt P01731); remark: listed apart in the source

Molecule: TRAF2 (over-expressed, cerulean-tagged)
NF-κB, fold against h19BBz alone [2]: 7.7 fold

B2: TRAF2 DN (87-501aa) (protein, UniProt Q12933 87-501, looked up, species assumed)
chain: SSSAFPDNAARREVESLPAVCPSDGCTWKGTLKEYESCHEGRCPLMLTECPACKGLVRLGEKERHLEHECPERSLSCRHCRAPCCGADVKAHHEVCPKFPLTCDGCGKKKIPREKFQDHVKTCGKCRVPCRFHAIGCLETVEGEKQQEHEVQWLREHLAMLLSSVLEAKPLLGDQSHAGSELLQRCESLEKKTATFENIVCVLNREVERVAMTAEACSRQHRLDQDKIEALSSKVQQLERSIGLKDLAMADLEQKVLEMEASTYDGVFIWKISDFARKRQEAVAGRIPAIFSPAFYTSRYGYKMCLRIYLNGDGTGRGTHLSLFFVVMKGPNDALLRWPFNQKVTLMLLDQNNREHVIDAFRPDVTSSSFQRPVNDMNIASGCPLFCPVSKMEAKNSYVRDDAIFIKAIVDLTGL
modifications: cerulean fluorescent protein tag
NF-κB signaling, GFP MFI in NF-κB/293/GFP-Luc reporter cells [3]: 14300 MFI | NF-κB signaling, GFP+% in NF-κB/293/GFP-Luc reporter cells [3]: 63.5%

Further lines, results first:

NF-κB signaling, GFP % in NF-κB/293/GFP-Luc reporter cells [1]: 13.4% | NF-κB signaling, GFP MFI in NF-κB/293/GFP-Luc reporter cells [1]: 1690 MFI
Molecule: TRAF1 DN (184-417aa)

NF-κB signaling, GFP % in NF-κB/293/GFP-Luc reporter cells [3]: 30.8% | NF-κB signaling, GFP MFI in NF-κB/293/GFP-Luc reporter cells [3]: 6060 MFI
B1: TRAF3 DN (382-568aa) (protein, UniProt Q13114 382-568, looked up, species assumed)
chain: ESQLSRHDQMLSVHDIRLADMDLRFQVLETASYNGVLIWKIRDYKRRKQEAVMGKTLSLYSQPFYTGYFGYKMCARVYLNGDGMGKGTHLSLFFVIMRGEYDALLPWPFKQKVTLMLMDQGSSRRHLGDAFKPDPNSSSFKKPTGEMNIASGCPVFVAQTVLENGTYIKDDTIFIKVIVDTSDLPDP
modifications: cerulean fluorescent protein tag
